Laboratory results reported in paper PMC5750218, “Protein-inspired antibiotics active against vancomycin- and daptomycin-resistant bacteria” (Nature Communications, 2018).
Values after ≈ are worked out from the molar mass of the structure shown. Like-named read-outs stand apart in the source and are kept apart here.

Key:
[1] = in vitro; details: human, 50% human plasma (pooled, sodium heparin) in PBS, pH 7.4
Protocol: (§1) Briefly, test compounds (20 μM) were prepared from a 0.2 mM H2O stock solution (40 μL in 400 μL assay volume) except eucatropine, which was 300 μg mL^−1 in 100% DMSO (10 μL in 400 μL assay volume equivalent to 23 μM). The precipitating solution was prepared by adding 5 μL of 10 mM carbutamide in DMSO to 100 mL acetonitrile (final concentration: 135.5 ng mL^−1 or 0.5 μM carbutamide). The human plasma sample (pooled normal human plasma sodium heparin anticoagulant, 2 µL, Cat No.: [sequence], BioReclamation) and phosphate-buffer saline (PBS, pH 7.4 isotonic) were pre-heated at 37 °C for 30 min. 40 μL of test compounds (0.2 mM) were added to protein-low binding Eppendorf tubes, 160 μL of buffer was added, and the mixture was vortexed. For eucatropine, 10 μL of eucatropine (300 μg mL^−1) was added to a protein-low binding Eppendorf tube, 190 μL of buffer was added, and the mixture was vortexed. In each case, 200 μL of plasma was added and the resultant mixture vortexed. For the initial time point (reaction time t = 0 h), 50 μL of sample was immediately transferred into a protein-low binding Eppendorf tube and quenched with 150 μL of the ice-cold precipitating solution, followed by vortexing and subsequent storage at 4 °C. For the remaining time points, the plasma solution was incubated and shaken (150 rpm) at 37 °C. 50 μL aliquots were collected at time points of 0, 1, 3, 6 and 24 h and quenched with 150 μL the ice-cold precipitating solution. All samples were placed in a 4 °C fridge for 30 min then centrifuged at 14,000 × g for 8 min at 4 °C. The supernatant (100 μL) was transferred to a glass vial insert and stored at 4 °C until LC-MS/MS analysis. The percentage of test compounds remaining at the individual time points relative to sample at time point 0 h were reported.

[2] = 37 °C, 20 µM
Protocol: as §1

[3] = test system: Bacillus subtilis ATCC 6633; test: microbe, parasite or virus in culture; format: cell-based; details: for Ac2Kaa concentration required to neutralise MIC activity / MIC: ATCC 6633, 48 h
[4] = In vivo pharmacokinetics in mice; details: mouse; for level at […]: 0.250 h; for level at 0.5 h: 0.500 h; for bioavailability / AUC(0-inf) / AUC(0-t) / C0 / clearance / half-life / MRT inf / MRT last / Vd / Cmax / Tmax: plasma; for bioavailability: subcutaneous, SC 10 mg kg-1 vs IV 2 mg kg-1; for MRT inf: read-out: MRT0-inf; for MRT last: read-out: MRT0-last; for Vd: read-out: Vdss
Protocol: Performed by WuXi AppTec (Shanghai) Co., Ltd. Seven to 9-week-old male CD1 mice (SLAC Laboratory Animal Co. Ltd., Shanghai, China) weighing 25–35 g were acclimated for approximate 3 days before being used in the study. Animals are group housed during acclimation and in-life study in compliance with the National Research Council 'Guide for the Care and Use of Laboratory Animals.' The animal room environment is controlled (target conditions: temperature 18 to 26 °C, relative humidity 30–70%, 12 h artificial light and 12 h dark) with temperature and relative humidity monitored daily. Animals were deprived of food for approximately 16 h before formulation administration then allowed access to Certified Rodent Diet (Catalogue # M-01F, Shanghai SLAC Laboratory Animal Co. Ltd.) ad libitum 4 h post dosing. Water was autoclaved before being provided to the animals ad libitum. Formulations of compounds were prepared on the morning of the dosing day. The formulation for the IV group was filtered with filter of 0.22 μm before being dosed to animals. After dose formulation preparation, duplicate 50 μL aliquots were removed from each dose formulation for use in dose validation. For each compound studied, three mice were dosed intravenously (IV) administered to each animal via tail vein per facility SOPs using test article formulated in deionised water at 1 mg mL^−1 with a dose volume of 2 mg mL^−1, providing a dose of 2 mg mL^−1 (based on free base concentration). An additional three mice were dosed subcutaneously (SC) administered to each animal via subcutaneous bolus on each animals’ back per facility SOPs using test article formulated in deionised water at 2 mg mL^−1 with a dose volume of 5 mg mL^−1, providing a dose of 10 mg mL^−1. All animals were killed at the last study time point (100% CO2 was introduced into the animal box).
Plasma samples were collected as the following target times after each dose administration: IV Sampling Time points (hours post dosing): 0, 0.083, 0.25, 0.5, 1, 2, 4, 8 and 24. SC Sampling Time points (hours post dosing): 0, 0.25, 0.5, 1, 2, 4, 8 and 24. Approximately 30 μL blood was obtained via submandibular or saphenous vein for the first several time points. For the last time point, samples were collected via cardiac puncture while the mouse was under anaesthesia. All blood samples were transferred into pre-chilled plastic microcentrifuge tubes containing 2 μL of ethylenediaminetetraacetic acid dipotassium salt (K2-EDTA) (0.5 M) as anticoagulant and placed on wet ice until centrifugation. Harvested blood samples were centrifuged within 30 min of collection at 7000 rpm (8546 × g) 4 °C for about 10 min. After centrifugation, plasma was transferred into another pre-labelled and pre-chilled polypropylene microcentrifuge tubes, then quick-frozen over dry ice and stored at −70 ± 10 °C until LC/MSMS analysis.
LC-MS/MS methods for the quantitative determination of the test article in mouse plasma were developed with an internal standard. Benchtop stability of the compound in mouse plasma was determined at mid QC concentrations in triplicate at 0, 2 h at room temperature. The stability was determined using mean peak area ratio of T2/T0 sample. If the mean peak area ratio is within 80%~120%, the test article in the plasma is considered stable for 2 h at room temperature. […] A set of QC samples consists of three concentration levels (low, middle and high). The sample analysis was performed concurrently with a set of calibration standards and two sets of QC samples using the LC-MS/MS method.
Plasma concentration vs. time data from individual animals was analysed by WinNonLin non-compartmental model (Phoenix WinNonlin 6.2.1, Pharsight, Mountain View, CA). Pharmacokinetic parameter C 0, T ½, CL, Vdss, C max, T max, AUC0-last, AUC0-inf, %F, MRT0-last, MRT0-inf and graphs of plasma concentration vs. time profile were derived.

[5] = Cytotoxicity MTT assay; format: cell-based, human; details: human
Procedure, shortened: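 HepG2 and HEK293 cells, 1.5 × 10^4 per well in DMEM with 1% FBS, were allowed to attach for 24 h, then exposed 24 h at 37 °C to compounds at 100 µM to 0.046 µM in threefold steps. MTT (0.4 mg mL^−1) was added for 2 h, and formazan in DMSO was read at 570 nm. Viability is given as percent of control, corrected for a positive control.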

[6] = Haemolysis assay; format: cell-based; details: human, whole blood
[7] = test system: S. pneumoniae ATCC 700677 MDR; test: microbe, parasite or virus in culture; format: cell-based, Streptococcus pneumoniae
Protocol: The compounds, along with standard antibiotics were serially diluted twofold across the wells of 96-well non-binding surface (NBS) polystyrene plates (Corning 3641). […] Standards ranged from 64 to 0.03 µg mL^−1 and compounds from 8 to 0.003 µg mL^−1 with final assay volumes of 100 µL per well. Gram-positive bacteria were cultured in Mueller Hinton broth (MHB) (Bactolaboratories, Cat. no. 211443) at 37 °C overnight. A sample of each culture was then diluted 40-fold in fresh MHB and incubated at 37 °C for 2–3 h. The resultant mid-log phase cultures were added to the compound-containing 96-well plates to give a final cell density of 5 × 10^5 colony forming unit (CFU) mL^−1. All the plates were covered and incubated at 37 °C for 24 h. MICs were the lowest concentration showing no visible growth.

[8] = male, CD1, plasma, 2 mg/kg IV, n=3, read-out: Plasma concentration, Mean IV
[9] = male, CD1, plasma, 2 mg/kg IV, read-out: Plasma concentration, Mean IV
[10] = male, CD1, plasma, 10 mg/kg SC, n=3, read-out: Plasma concentration, Mean SC
[11] = male, CD1, plasma, 10 mg/kg SC, read-out: Plasma concentration, Mean SC

## CCCCCCCCCCC(=O)N[C@@H](CCCCN)C(=O)N[C@@H](CCCCN)C(=O)N[C@@H](CCCCN)C(=O)N[C@@H](CCCCNC(=O)[C@H]1NC(=O)[C@H]2NC(=O)[C@H](NC(=O)[C@@H]3NC(=O)[C@H](CC(N)=O)NC(=O)[C@H](NC(=O)[C@@H](CC(C)C)NC)[C@H](O)c4ccc(c(Cl)c4)Oc4cc3cc(c4O[C@@H]3O[C@H](CO)[C@@H](O)[C@H](O)[C@H]3O[C@H]3C[C@](C)(N)[C@H](O)[C@H](C)O3)Oc3ccc(cc3Cl)[C@H]2O)c2ccc(O)c(c2)-c2c(O)cc(O)cc21)C(=O)O [Compound 18, nC10CO-KKK-K(Vancomycin)-OH]
[1]
  remaining at 1 h, 20 µM: 87%
  remaining at 3 h, 20 µM: 87%
  remaining at 6 h, 20 µM: 83%
  remaining at 24 h, 20 µM: 93%
[2]
  % compound remaining after incubation in 50% human plasma, 0h: 100%
[3]
  Ac2Kaa concentration required to neutralise MIC activity: 100 µg/mL
  MIC: ≤ 0.004 µg/mL
[4]; [8]
  level at 5 min: 5440 ng/mL
[4]; [9]
  level at […]: 3570 ng/mL
  level at 0.5 h: 2250 ng/mL
  level at 1 h: 1500 ng/mL
  level at 2 h: 447 ng/mL
  level at 4 h: 69.6 ng/mL
[4]; [10]
  level at […]: 2360 ng/mL
[4]; [11]
  level at 0.5 h: 4450 ng/mL
  level at 1 h: 6220 ng/mL
  level at 2 h: 4520 ng/mL
  level at 4 h: 1260 ng/mL
  level at 8 h: 113 ng/mL
[4]; IV 2 mg kg-1
  AUC0-inf/AUC0-last: 101%
  AUC(0-inf): 4240 ng·h/mL
  AUC(0-t): 4210 ng·h/mL
  C0: 6740 ng/mL
  clearance: 8.11 mL/min/kg
  half-life: 0.77 h
  MRT inf: 0.9 h
  MRT last: 0.9 h
  Vd: 0.43 L/kg
[4]; SC 10 mg kg-1
  AUC0-inf/AUC0-last: 101%
  Tlast: 8 h
  AUC(0-inf): 16300 ng·h/mL
  AUC(0-t): 16100 ng·h/mL
  Cmax: 6290 ng/mL
  Tmax: 0.83 h
  half-life: 1.1 h
  MRT inf: 2 h
  MRT last: 1.9 h
[4]
  bioavailability: 77%
[5]
  CC50 at 24 h: 108 µM
[6]; 100 µg mL-1
  hemolysis at 3 h: 1.4%
[6]; 1600 µg mL-1
  hemolysis at 3 h: 1.2%

## CCCCCCCCCCCCCC(=O)N[C@@H](CCCCN)C(=O)N[C@@H](CCCCN)C(=O)N[C@@H](CCCCN)C(=O)N[C@@H](CCCCNC(=O)[C@H]1NC(=O)[C@H]2NC(=O)[C@H](NC(=O)[C@@H]3NC(=O)[C@H](CC(N)=O)NC(=O)[C@H](NC(=O)[C@@H](CC(C)C)NC)[C@H](O)c4ccc(c(Cl)c4)Oc4cc3cc(c4O[C@@H]3O[C@H](CO)[C@@H](O)[C@H](O)[C@H]3O[C@H]3C[C@](C)(N)[C@H](O)[C@H](C)O3)Oc3ccc(cc3Cl)[C@H]2O)c2ccc(O)c(c2)-c2c(O)cc(O)cc21)C(=O)O [Compound 17, nC13CO-KKK-K(Vancomycin)-OH]
[1]
  remaining at 1 h, 20 µM: 79%
  remaining at 3 h, 20 µM: 79%
  remaining at 6 h, 20 µM: 62%
  remaining at 24 h, 20 µM: 66%
[2]
  % compound remaining after incubation in 50% human plasma, 0h: 100%
[3]
  Ac2Kaa concentration required to neutralise MIC activity: 400 µg/mL
  MIC: ≤ 0.004 µg/mL
[3]; [ligand]/[antibiotic], B. subtilis ATCC 6633, 24 h
  Molar excess of Ac2Kaa ligand required to antagonise antibacterial activity: 29,472
[5]
  CC50 at 24 h: 19 µM
[6]; 25 µg mL-1
  hemolysis at 3 h: 0.15%
[6]; 50 µg mL-1
  hemolysis at 3 h: 0.75%
[6]; 100 µg mL-1
  hemolysis at 3 h: 0.65%
[6]; 200 µg mL-1
  hemolysis at 3 h: 0.85%
[6]; 400 µg mL-1
  hemolysis at 3 h: 0.5%
[6]; 800 µg mL-1
  hemolysis at 3 h: 1%
[6]; 1600 µg mL-1
  hemolysis at 3 h: 1.55%

## CNC(=O)[C@H](CCCCNC(=O)[C@H]1NC(=O)[C@H]2NC(=O)[C@H](NC(=O)[C@@H]3NC(=O)[C@H](CC(N)=O)NC(=O)[C@H](NC(=O)[C@@H](CC(C)C)NC)[C@H](O)c4ccc(c(Cl)c4)Oc4cc3cc(c4O[C@@H]3O[C@H](CO)[C@@H](O)[C@H](O)[C@H]3O[C@H]3C[C@](C)(N)[C@H](O)[C@H](C)O3)Oc3ccc(cc3Cl)[C@H]2O)c2ccc(O)c(c2)-c2c(O)cc(O)cc21)NC(=O)[C@H](CCCCN)NC(=O)[C@H](CCCCN)NC(=O)[C@H](CCCCNC(=O)c1ccc(Oc2ccccc2)cc1)NC(=O)c1ccc(Oc2ccccc2)cc1 [Compound 24, POB2K-KK-K(Vancomycin)-NHMe]
[1]
  remaining at 1 h, 20 µM: 100%
  remaining at 3 h, 20 µM: 100%
  remaining at 6 h, 20 µM: 106%
  remaining at 24 h, 20 µM: 89%
[2]
  % compound remaining after incubation in 50% human plasma, 0h: 100%
[4]; [8]
  level at 5 min: 13800 ng/mL
[4]; [9]
  level at […]: 10000 ng/mL
  level at 0.5 h: 5230 ng/mL
  level at 1 h: 3010 ng/mL
  level at 2 h: 1210 ng/mL
  level at 4 h: 285 ng/mL
  level at 8 h: 81.9 ng/mL
[4]; [10]
  level at […]: 227 ng/mL
[4]; [11]
  level at 0.5 h: 548 ng/mL
  level at 1 h: 1400 ng/mL
  level at 2 h: 1920 ng/mL
  level at 4 h: 2350 ng/mL
  level at 8 h: 845 ng/mL
[4]; male, CD1, plasma, 10 mg/kg SC, 24.0 h, read-out: Plasma concentration, Mean SC
  level at 24 h: 243 ng/mL
[4]; IV 2 mg kg-1
  AUC0-inf/AUC0-last: 101%
  AUC(0-inf): 11200 ng·h/mL
  AUC(0-t): 11000 ng·h/mL
  C0: 16300 ng/mL
  clearance: 2.98 mL/min/kg
  half-life: 2.29 h
  MRT inf: 1.39 h
  MRT last: 1.24 h
  Vd: 0.248 L/kg
[4]; SC 10 mg kg-1
  AUC0-inf/AUC0-last: 113%
  Tlast: 24 h
  AUC(0-inf): 22600 ng·h/mL
  AUC(0-t): 20000 ng·h/mL
  Cmax: 2350 ng/mL
  Tmax: 4 h
  half-life: 6.97 h
  MRT inf: 11 h
  MRT last: 7.99 h
[4]
  bioavailability: 36.3%
[7]; 5% Survanta
  MIC S. pneumoniae ATCC 700677 MDR: 0.25 µg/mL (≈ 106 nM)
[7]; no added Survanta
  MIC S. pneumoniae ATCC 700677 MDR: ≤ 0.003 µg/mL
[5]
  CC50 at 24 h: 140 µM
